*1 amine or outer side, *2 acyl side, *3 side chain or, on linkers, in order; H or OH if unused. Where no end group is shown, it is not given here. Side-chain parts run from the residue outwards. [ ]: non-standard residue; d: D form. The star is where a group is joined. C18 diacid = O=C(O)CCCCCCCCCCCCCCCCC(=O)*; γGlu = O=C(O)[C@H](CCC(=O)[*:2])N[*:1]; Desaminohistidyl = O=C(CCc1c[nH]cn1)*; Ac4c = NC1(C(=O)O)CCC1; AEEA = NCCOCCOCC(=O)O; Aib = CC(C)(N)C(=O)O
What was measured:
[1] = target: T1, human glucagon receptor (human, UniProt P47871 26-477); experiment: SPA displacement of [125I]-glucagon from human glucagon receptor BHK membranes
T1 construct: whole, on cells; reporter assay on whole cells
T1 sequence (P47871 26-477): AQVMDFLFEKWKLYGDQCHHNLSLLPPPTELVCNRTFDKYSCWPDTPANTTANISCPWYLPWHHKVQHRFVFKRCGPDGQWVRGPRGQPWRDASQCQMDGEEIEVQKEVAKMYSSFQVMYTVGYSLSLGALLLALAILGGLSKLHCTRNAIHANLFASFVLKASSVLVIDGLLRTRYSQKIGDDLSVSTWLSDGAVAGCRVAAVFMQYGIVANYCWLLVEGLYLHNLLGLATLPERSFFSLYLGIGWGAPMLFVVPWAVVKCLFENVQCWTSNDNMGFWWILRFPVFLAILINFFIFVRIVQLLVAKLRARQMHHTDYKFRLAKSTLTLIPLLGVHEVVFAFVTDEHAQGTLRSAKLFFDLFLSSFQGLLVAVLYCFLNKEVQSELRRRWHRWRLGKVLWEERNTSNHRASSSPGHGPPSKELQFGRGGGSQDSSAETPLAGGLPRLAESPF
Description: 1. For the receptor binding assay 50 μl of the assay buffer was added to each well of an assay plate. [0603] 2. Test compounds were serially diluted to give the following concentrations: 8×10EE-7 M, 8×10EE-8 M, 8×10EE-9 M, 8×10EE-10 M, 8×10EE-11 M, 8×10EE-12 M and 8×10EE-13 M. Twenty-five μl were added to appropriate wells in the assay plate. [0604] 3. Cell membrane aliquots were thawed and diluted to their working concentration. Fifty μl were added to each well in the assay plate. [0605] 4. WGA SPA beads were suspended in assay buffer at 20 mg/ml. The suspension was diluted to 10 mg/ml in assay buffer just prior to addition to the assay plate. Fifty μl were added to each well in the assay plate. [0606] 5. […] A 25 μl aliquot was reserved for measuring total counts/well. […] 6. The assay plate was incubated for 2 h at 25° C. [0608] 7. The assay plate was centrifuged for 10 min at 1500 rpm. [0609] 8. The assay plate was read in a Perkin Elmer TopCount NXT instrument.

[2] = target: T2, human GLP-1 receptor (human, UniProt P43220 24-463); experiment: SPA displacement of [125I]GLP-1(7-36)NH2 from hGLP-1R BHK membranes
T2 construct: whole, on cells; reporter assay on whole cells
Description: The GLP-1 receptor binding of each derivatives were determined with competitive binding, displacing [¹²⁵I]GLP-1 bound to GLP-1 receptors expressed in cell membranes associated with wheat germ agglutinin (WGA) scintillation proximity assay (SPA) beads. Each derivative was added in a series of concentrations to isolated membranes comprising the human GLP-1 receptor and displacement of the labelled radioligand was monitored. The receptor binding was reported as the concentration at which half of the labelled ligand is displaced from the receptor, the IC⁵⁰ value.
1. For the receptor binding assay 50 μl of the assay buffer was added to each well of an assay plate. [0588] 2. Test compounds were serially diluted to give the following concentrations: 8×10EE-7 M, 8×10EE-8 M, 8×10EE-9 M, 8×10EE-10 M, 8×10EE-11 M, 8×10EE-12 M and 8×10EE-13 M. Twenty-five μl were added to appropriate wells in the assay plate. [0589] 3. Cell membrane aliquots were thawed and diluted to their working concentration. Fifty μl were added to each well in the assay plate. [0590] 4. WGA SPA beads were suspended in assay buffer at 20 mg/ml. The suspension was diluted to 10 mg/ml in assay buffer just prior to addition to the assay plate. Fifty μl were added to each well in the assay plate. [0591] 5. […] A 25 μl aliquot was reserved for measuring total counts/well. [0592] 6. The assay plate was incubated for 2 h at 30° C. [0593] 7. The assay plate was centrifuged for 10 min. [0594] 8. The assay plate was read in a Perkin Elmer TopCount NXT instrument.

[3] = target: T2, human GLP-1 receptor; experiment: cell-based or functional assay
[4] = target: T1, human glucagon receptor; experiment: cell-based or functional assay

Row | Binder | IC50 [1] [nM] | IC50 [2] [nM] | EC50 GLP-1R [pM], CRE luciferase reporter gene assay [3] [pM] | EC50 GlucagonR [pM], CRE luciferase reporter gene assay [4] [pM]
1 | [Desaminohistidyl][Aib]HGTFTSDVSKYLEEQAAREFIAWLLK([Ado-Ado-γGlu-γGlu-γGlu-C18 diacid])T (Named as peptide, not peptide amide (C-terminal acid)) | 28.1 | 4.6 | – | –
2 | [Desaminohistidyl]AHGTFTSDVSRYLEGRAAREFIAWLLK([Ado-Ado-γGlu-γGlu-γGlu-C18 diacid]) | 43.4 | 19 | – | –
3 | [Desaminohistidyl][Aib]HGTFTSDVSKYLEEQAAREFIAWLLK([Gly-Ser-Glu-Gly-Ser-γGlu-γGlu-C18 diacid])T-NH2 | 3.2 | 0.4 | 5 | 40.7
4 | [Desaminohistidyl][Aib]HGTFTSDYSKYLEGK([AEEA-AEEA-γGlu-C18 diacid])AAREFIAWLLKT-NH2 (SMILES CC[C@H](C)[C@H](NC(=O)[C@H](Cc1ccccc1)NC(=O)[C@H](CCC(=O)O)NC(=O)[C@H](CCCNC(=N)N)NC(=O)[C@H](C)NC(=O)[C@H](C)NC(=O)[C@H](CCCCNC(=O)COCCOCCNC(=O)COCCOCCNC(=O)CC[C@H](NC(=O)CCCCCCCCCCCCCCCCC(=O)O)C(=O)O)NC(=O)CNC(=O)[C@H](CCC(=O)O)NC(=O)[C@H](CC(C)C)NC(=O)[C@H](Cc1ccc(O)cc1)NC(=O)[C@H](CCCCN)NC(=O)[C@H](CO)NC(=O)[C@H](Cc1ccc(O)cc1)NC(=O)[C@H](CC(=O)O)NC(=O)[C@H](CO)NC(=O)[C@@H](NC(=O)[C@H](Cc1ccccc1)NC(=O)[C@@H](NC(=O)CNC(=O)[C@H](Cc1c[nH]cn1)NC(=O)C(C)(C)NC(=O)CCc1c[nH]cn1)[C@@H](C)O)[C@@H](C)O)C(=O)N[C@@H](C)C(=O)N[C@@H](Cc1c[nH]c2ccccc12)C(=O)N[C@@H](CC(C)C)C(=O)N[C@@H](CC(C)C)C(=O)N[C@@H](CCCCN)C(=O)N[C@H](C(N)=O)[C@@H](C)O) | 51 | 13.1 | – | –
5 | [Desaminohistidyl][Ac4c]HGTFTSDVSKYLEK([γGlu-γGlu-AEEA-AEEA-γGlu-C18 diacid])QAAREFIAWLLKT-NH2 (SMILES CC[C@H](C)[C@H](NC(=O)[C@H](Cc1ccccc1)NC(=O)[C@H](CCC(=O)O)NC(=O)[C@H](CCCNC(=N)N)NC(=O)[C@H](C)NC(=O)[C@H](C)NC(=O)[C@H](CCC(N)=O)NC(=O)[C@H](CCCCNC(=O)CC[C@H](NC(=O)CC[C@H](NC(=O)COCCOCCNC(=O)COCCOCCNC(=O)CC[C@H](NC(=O)CCCCCCCCCCCCCCCCC(=O)O)C(=O)O)C(=O)O)C(=O)O)NC(=O)[C@H](CCC(=O)O)NC(=O)[C@H](CC(C)C)NC(=O)[C@H](Cc1ccc(O)cc1)NC(=O)[C@H](CCCCN)NC(=O)[C@H](CO)NC(=O)[C@@H](NC(=O)[C@H](CC(=O)O)NC(=O)[C@H](CO)NC(=O)[C@@H](NC(=O)[C@H](Cc1ccccc1)NC(=O)[C@@H](NC(=O)CNC(=O)[C@H](Cc1c[nH]cn1)NC(=O)C1(NC(=O)CCc2c[nH]cn2)CCC1)[C@@H](C)O)[C@@H](C)O)C(C)C)C(=O)N[C@@H](C)C(=O)N[C@@H](Cc1c[nH]c2ccccc12)C(=O)N[C@@H](CC(C)C)C(=O)N[C@@H](CC(C)C)C(=O)N[C@@H](CCCCN)C(=O)N[C@H](C(N)=O)[C@@H](C)O) | 17.9 | 0.2 | – | –
6 | [Desaminohistidyl][Aib]HGTFTSDVSKYLEEQAAREFIAWLIK([Ado-Ado-γGlu-γGlu-C18 diacid])T-NH2 | 11.8 | 0.2 | 18.3 | 106
7 | [Desaminohistidyl][Aib]HGTFTSDVSKYLEGK([AEEA-AEEA-γGlu-C18 diacid])AAREFIAWLLKT-NH2 (SMILES CC[C@H](C)[C@H](NC(=O)[C@H](Cc1ccccc1)NC(=O)[C@H](CCC(=O)O)NC(=O)[C@H](CCCNC(=N)N)NC(=O)[C@H](C)NC(=O)[C@H](C)NC(=O)[C@H](CCCCNC(=O)COCCOCCNC(=O)COCCOCCNC(=O)CC[C@H](NC(=O)CCCCCCCCCCCCCCCCC(=O)O)C(=O)O)NC(=O)CNC(=O)[C@H](CCC(=O)O)NC(=O)[C@H](CC(C)C)NC(=O)[C@H](Cc1ccc(O)cc1)NC(=O)[C@H](CCCCN)NC(=O)[C@H](CO)NC(=O)[C@@H](NC(=O)[C@H](CC(=O)O)NC(=O)[C@H](CO)NC(=O)[C@@H](NC(=O)[C@H](Cc1ccccc1)NC(=O)[C@@H](NC(=O)CNC(=O)[C@H](Cc1c[nH]cn1)NC(=O)C(C)(C)NC(=O)CCc1c[nH]cn1)[C@@H](C)O)[C@@H](C)O)C(C)C)C(=O)N[C@@H](C)C(=O)N[C@@H](Cc1c[nH]c2ccccc12)C(=O)N[C@@H](CC(C)C)C(=O)N[C@@H](CC(C)C)C(=O)N[C@@H](CCCCN)C(=O)N[C@H](C(N)=O)[C@@H](C)O) | 80.2 | 1.9 | – | –
8 | [Desaminohistidyl][Aib]HGTFTSDLSKYLEEQAAREFIAWLLK([Ado-Ado-γGlu-γGlu-C18 diacid])T-NH2 | 5.1 | 1.1 | 14.7 | 54.2
9 | [Desaminohistidyl][Ac4c]HGTFTSDVSKYLEK([γGlu-γGlu-AEEA-AEEA-γGlu-C18 diacid])RAAREFIAWLLKT-NH2 (SMILES CC[C@H](C)[C@H](NC(=O)[C@H](Cc1ccccc1)NC(=O)[C@H](CCC(=O)O)NC(=O)[C@H](CCCNC(=N)N)NC(=O)[C@H](C)NC(=O)[C@H](C)NC(=O)[C@H](CCCNC(=N)N)NC(=O)[C@H](CCCCNC(=O)CC[C@H](NC(=O)CC[C@H](NC(=O)COCCOCCNC(=O)COCCOCCNC(=O)CC[C@H](NC(=O)CCCCCCCCCCCCCCCCC(=O)O)C(=O)O)C(=O)O)C(=O)O)NC(=O)[C@H](CCC(=O)O)NC(=O)[C@H](CC(C)C)NC(=O)[C@H](Cc1ccc(O)cc1)NC(=O)[C@H](CCCCN)NC(=O)[C@H](CO)NC(=O)[C@@H](NC(=O)[C@H](CC(=O)O)NC(=O)[C@H](CO)NC(=O)[C@@H](NC(=O)[C@H](Cc1ccccc1)NC(=O)[C@@H](NC(=O)CNC(=O)[C@H](Cc1c[nH]cn1)NC(=O)C1(NC(=O)CCc2c[nH]cn2)CCC1)[C@@H](C)O)[C@@H](C)O)C(C)C)C(=O)N[C@@H](C)C(=O)N[C@@H](Cc1c[nH]c2ccccc12)C(=O)N[C@@H](CC(C)C)C(=O)N[C@@H](CC(C)C)C(=O)N[C@@H](CCCCN)C(=O)N[C@H](C(N)=O)[C@@H](C)O) | 14.1 | 0.2 | – | –
10 | [Desaminohistidyl][Aib]HGTFTSDVSKYLEEQAAREFIAWLLK([Gly-Ser-Glu-Gly-Ser-γGlu-γGlu-C18 diacid])T (Named as peptide, not peptide amide (C-terminal acid)) | 18.8 | 6.9 | – | –
11 | [Desaminohistidyl][Aib]HGTFTSDVSKYLEK([γGlu-γGlu-AEEA-AEEA-γGlu-C18 diacid])QAAREFIAWLLKGGG | 56 | 0.5 | – | –
12 | [Desaminohistidyl][Aib]HGTFTSDYSKYLEEQAAREFIAWLLKGK([Gly-Ser-Glu-Gly-Ser-γGlu-γGlu-C18 diacid])G | 31.1 | 3.2 | – | –
13 | [Desaminohistidyl]AHGTFTSDVSKYLEGRAAREFIAWLLK([Ado-Ado-γGlu-γGlu-γGlu-C18 diacid])GGG | 69.5 | 0.9 | – | –
